Source: paper PMC7615342

Tests used:
[1] = Flow cytometry, surface versus total PD-1 staining; conditions: glycan changed form; control: sgNT Tregs
[2] = Flow cytometry, PD-1+ frequency and MFI, ex vivo Tregs; conditions: glycan changed form; control: DMSO-treated Tregs

B1: PD-1: sgSlc35c1 (protein)
parent chain: MWVRQVPWSFTWAVLQLSWQSGWLLEVPNGPWRSLTFYPAWLTVSEGANATFTCSLSNWSEDLMLNWNRLSPSNQTEKQAAFCNGLSQPVQDARFQIIQLPNRHDFHMNILDTRRNDSGIYLCGAISLHPKAKIEESPGAELVVTERILETSTRYPSPSPKPEGRFQGMVIGIMSALVGIPVLLLLAWALAVFCSTSMSEARGAGSKDDTLKEEPSAAPVPSVAYEELDFQGREKTPELPTACVHTEYATIVFTEGLGASAMGRRGSADGLQGPRPPRHEDGHCSWPL
localisation_or_trafficking [1]: decreases

B2: PD-1: 2FF 100 μM, 6 days (protein)
parent chain: B1 parent chain
expression_or_secretion [2]: decreases
